# Patent US12564637B2, “Nucleic acid mazzocchio and methods of making and use thereof” (The University of Hong Kong, priority 2019, dated 2026)
# What was measured:
# [1] = Doxorubicin loading/encapsulation by quenching of doxorubicin fluorescence; assay type: binding
# Experimental: The DNA mazzocchio (from Example 1) and DNA tetrahedron nanostructures were made through an annealing process. The multiple single-stranded DNAs were mixed in equal ratio and placed in a thermal cycler to heat up (95° C. for 5 minutes) followed by slow cooling (overnight down to 20° C.).
# 10 μM of doxorubicin was incubated with various concentrations of the DNA mazzocchio and DNA tetrahedron nanostructures (as shown on the X-axis of FIG. 2) for 1 hour at room temperature. Then, 13 μl of mixture was placed in a 384-well microtiter plate and inserted in the plate reader. The fluorescence was measured using a plate reader (Varioskan Flash by Thermo Fisher Scientific) at the following parameters: Excitation 488 nm/Emission 595 nm; bandwidth 12 nm; measurement time: 500 ms. Error bars were obtained as standard error from triplicate experiments.
# Since the intercalation of doxorubicin inhibited its fluorescence, the loading efficiency could be determined by the half maximal inhibitory concentration (IC50).
# [2] = Diameter of the nanostructure by transmission electron microscopy (TEM); assay type: physicochemical; details: images analyzed by ImageJ
# Experimental: TEM was used to characterize the final DNA mazzocchio nanostructure. 5 μl of DNA mazzocchio samples were first adsorbed onto glow-discharged 400 mesh copper grids (Ted Pella, Inc.) for 1 minute. This was followed by staining with 2% uranyl acetate for 1 minute. The stained samples were washed twice by distilled water to remove excess uranyl acetate. Stained DNA mazzocchio samples on the grid were visualized using a Philips CM 100 Transmission Electron Microscope with 100 kV operating voltage. Electron photomicrographs of DNA mazzocchio were captured with magnification from 73,000×-105,000× on different positions of the grid. To experimentally determine the diameter of the DNA mazzocchio, images were analyzed by the ImageJ software.
molecule,measurement,setting,value
"mazzocchio: DNA nanostructure of 16 hexagonal subunits, each composed of 12 single-stranded DNA oligonucleotides (SEQ ID NOs: 1-12) (nucleic acid, 16 hexagonal subunits assembled; Synthetic sequence - strand 1; Synthetic sequence - strand 2; Synthetic sequence - strand 3; Synthetic sequence - strand 4; Synthetic sequence - strand 5; Synthetic sequence - strand 6; Synthetic sequence - strand 7; Synthetic sequence - strand 8; Synthetic sequence - strand 9; Synthetic sequence - strand 10; Synthetic sequence - strand 11; Synthetic sequence - strand 12) chain 1: GATAGGCCGAGATCTGAGGATGCTGGCTCACGCCATTGGCTCGCGACCCCGTCCGCTAGACGTTATGCACAAGGCGTTGTCATTAGATGCTTAGGTGCTCAGGCCGTAATGAGGCCGCTTGGCTGCGTTCCTCCGCCGCTTGGGAACAGCCCCGC chain 2: TCCAGCTCTGCGGACGGGGTCGCGAGCCATTCGAGGGCT chain 3: TCGCCTGTAATACGCCTTGTGCATAACGTCTTGCCAACCC chain 4: TGCCCGTACCCTGGTGCACCTAAGCATCTAATGACTCTGCGGAAGA chain 5: TACCCCACTTTAGCGATAGCGGCCTCATTACGGCCTGTGCTACCCGTACGGA chain 6: ATCAGTACGATTGGCGTGAGCCAGCATCCTCTAGCGGCGGAGGAACGCAGCCTAGGCGGAACTCTTCGG chain 7: TCGCTAAAGTGGGGTACCGAAGAGTTCCGCCT chain 8: GATCTCGGCCTATCGCGGGGCTGTTCCC chain 9: TCGTACTGATGAGCCCTCGA chain 10: GAGCTGGAGGGTTGGC chain 11: TTACAGGCGATCTTCCGCAG chain 12: CCAGGGTACGGGCATCCGTACGGGTAGC",IC50,"[1]; 10 μM doxorubicin, 1 hour at room temperature, Ex 488 nm/Em 595 nm, triplicate, read-out: half maximal inhibitory concentration (IC50) of doxorubicin fluorescence (loading efficiency)",480 nM
same,effectiveness in carrying doxorubicin as compared to the tetrahedron,[1]; comparison of the IC50 values,three times more effective
same,average diameter of the nanostructures,[2],49.30±10.37 nm
